Columns and labels:
THOC4 (ALYREF) [1] = biological target: T1, THOC4 (ALYREF) (UniProt Q86V81 Q86V81:2-257); assay: SPR; LSA_In3E3 = 1
hSSB1 [2] = biological target: T2, hSSB1 (Homo sapiens, UniProt Q9BQ15 Q9BQ15:1-211); assay: SPR; LSA_In3E3 = 1
THOC4 (ALYREF) [3] = biological target: T1, THOC4 (ALYREF); assay: SPR
hSSB1 [4] = biological target: T2, hSSB1; assay: SPR

T2 sequence (Q9BQ15 whole entry, one chain of several): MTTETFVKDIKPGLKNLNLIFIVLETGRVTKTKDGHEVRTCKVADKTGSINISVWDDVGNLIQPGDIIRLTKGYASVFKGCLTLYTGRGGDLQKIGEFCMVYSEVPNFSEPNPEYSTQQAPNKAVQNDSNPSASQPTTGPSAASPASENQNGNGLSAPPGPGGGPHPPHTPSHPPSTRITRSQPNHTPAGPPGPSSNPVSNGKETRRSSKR

Row | Binder | binding signal (THOC4 (ALYREF) [1]) [normalized Rmax] | binding signal (hSSB1 [2]) [normalized Rmax] | binding signal (THOC4 (ALYREF) [3]) [normalized Rmax] | binding signal (hSSB1 [4]) [normalized Rmax]
1 | CCAGUGAGCCGGACU (ssRNA, 2'-OMe all, PS all) [In3E3 3' truncation 15 nt] | -0.09 | 0.36 | – | –
2 | UGAGCCGGACUUGCCU (ssRNA, 2'-OMe all, PS all) [In3E3 5' truncation 16 nt] | 0.24 | 0.48 | – | –
3 | AGCCGGACUUGCCU (ssRNA, 2'-OMe all, PS all) [In3E3 5' truncation 14 nt] | 0.09 | 0.3 | – | –
4 | CCUGUCAGCCGCACUUGCCU (ssRNA, 2'-OMe all, full PS) [DKLS463357 (SEQ 59)] | – | – | 0.39 | 0.95
5 | CCAGGGAGCCGGACUUGGCG (ssRNA, 2'-OMe all, full PS) [DKLS712428 (SEQ 64)] | – | – | 0.51 | 0.7
6 | CCAGUGAGCCGGACUU (ssRNA, 2'-OMe all, PS all) [In3E3 3' truncation 16 nt] | 0.38 | 0.4 | – | –
7 | GGACUUGCCU (ssRNA, 2'-OMe all, PS all) [In3E3 5' truncation 10 nt] | -0.01 | 0.07 | – | –
8 | CCAGUGAGCCGGACUUGCC (ssRNA, 2'-OMe all, PS all) [In3E3 3' truncation 19 nt] | 0.9 | 0.68 | – | –
9 | CCAGUGAGCCGGACUUGCCU (ssRNA, PS all, no sugar modification) [In3E3 PS only (DKLS426690)] | 1.06 | 0.99 | – | –
10 | CCAGUAAGCCAGACUUGCAU (ssRNA, 2'-OMe all, full PS) [DKLS399970 (SEQ 61)] | – | – | 0.3 | 0.64
11 | CCAGUGAGCUGGACUUGCCU (ssRNA, 2'-OMe all, PS all) [In3LSA_CU] | 0.54 | 0.97 | – | –
12 | AGUGAGCCGGACUUGCCU (ssRNA, 2'-OMe all, PS all) [In3E3 5' truncation 18 nt] | 0.84 | 0.84 | – | –
13 | CCAGUGAGCCGGA (ssRNA, 2'-OMe all, PS all) [In3E3 3' truncation 13 nt] | 0.08 | 0.53 | – | –
14 | GAGCCGGACUUGCCU (ssRNA, 2'-OMe all, PS all) [In3E3 5' truncation 15 nt] | 0.45 | 0.4 | – | –
15 | CAGAGGCAGCAGUACGACGG (ssRNA, 2'-OMe all, PS three at each end) [LSA_ATG 2'-OMe PS ends (DKLS286198)] | – | 0.17 | – | –
16 | CCAGUGAGCCGAACUUCUCU (ssRNA, 2'-OMe all, full PS) [DKLS459014 (SEQ 62)] | – | – | 0.26 | 0.55
17 | GUGAGCCGGACUUGCCU (ssRNA, 2'-OMe all, PS all) [In3E3 5' truncation 17 nt] | 0.23 | 0.83 | – | –
18 | AGUGAGCCGGACUUGC (ssRNA, 2'-OMe all, PS all) [In3E3 both-end truncation 16 nt] | 0.68 | 0.71 | – | –
19 | CGUGUCAUCCGCUCUCGACU (ssRNA, 2'-OMe all, PS all) [LSA_In3E3_CT4] | 0.21 | 0.8 | – | –
20 | CCAGUGAGCCGGACUUG (ssRNA, 2'-OMe all, PS all) [In3E3 3' truncation 17 nt] | 0.69 | 0.59 | – | –
21 | CCGGUGAGCGACACUAGGCU (ssRNA, 2'-OMe all, PS all) [In3LSA_scr3_4] | 0.66 | 0.77 | – | –
22 | CCAGUGAGCCGGACUUGCCU (ssRNA, 2'-OMe all, PS three at each end) [In3E3 2'-OMe PS ends (DKLS621499)] | – | 0.12 | – | –
23 | UGAGCCGGACUU (ssRNA, 2'-OMe all, PS all) [In3E3 both-end truncation 12 nt] | 0.08 | 0.2 | – | –
24 | CCAGUGAGCCGGACUUGC (ssRNA, 2'-OMe all, PS all) [In3E3 3' truncation 18 nt] | 0.87 | 0.67 | – | –
25 | GUGCAUGGAAUCACGGAGUG (ssRNA, PS all, no sugar modification) [Open_A PS only (DKLS669778)] | 0.76 | 1.3 | – | –

Row | Binder | binding signal (THOC4 (ALYREF) [1]) [normalized Rmax] | binding signal (hSSB1 [2]) [normalized Rmax] | binding signal (THOC4 (ALYREF) [3]) [normalized Rmax] | binding signal (hSSB1 [4]) [normalized Rmax]
26 | CCAGUGAG (ssRNA, 2'-OMe all, PS all [2'-OMe at 1-8 (all); PS at all linkages]) [In3E3 3' truncation 8 nt] | -0.05 | 0.09 | – | –
27 | GUGAGCCGGACUUG (ssRNA, 2'-OMe all, PS all) [In3E3 both-end truncation 14 nt] | 0.48 | 0.45 | – | –
28 | CCAGUGAGCC (ssRNA, 2'-OMe all, PS all) [In3E3 3' truncation 10 nt] | -0.01 | 0.11 | – | –
29 | CCACUGAGCCCGACUUCCCU (ssRNA, 2'-OMe all, full PS) [DKLS459520 (SEQ 60)] | – | – | 0.03 | 0.63
30 | GGAGGGAGUCGGACUUGUCU (ssRNA, 2'-OMe all, full PS) [DKLS444294 (SEQ 65)] | – | – | 1.78 | 1.58
31 | CUCAUUCCUACCGACACCCC (ssRNA, 2'-OMe all, phosphodiester) [Neg_C 2'-OMe PD (DKLS341370)] | 0.08 | 0.37 | – | –
32 | CCAGUGAGCCGGACUUGCCU (ssRNA, 2'-OMe all, phosphodiester, ZEN at both ends) [In3E3 ZEN (DKLS991101)] | – | 0.17 | – | –
33 | CAGUGAGCCGGACUUGCC (ssRNA, 2'-OMe all, PS all) [In3E3 both-end truncation 18 nt] | 0.96 | 0.91 | – | –
34 | UACCGCGUGCGACCCUCU (ssRNA, 2'-OMe all, full PS) [DKLS784557 (SEQ 10)] | – | – | 0.49 | 0.69
35 | GCGGUGAACCGGAGUUGGCU (ssRNA, 2'-OMe all, full PS) [DKLS438994 (SEQ 66)] | – | – | 1.11 | 1.03
36 | CUAGUAAGUCGGACUUGCCU (ssRNA, 2'-OMe all, full PS) [DKLS447399 (SEQ 63)] | – | – | 1.22 | 1.22
37 | CCUGUGUGCCCCUCUUCCCU (ssRNA, 2'-OMe all, full PS) [DKLS374580 (SEQ 58)] | – | – | 0.12 | 0.68
38 | CCAGUGAGCCGGAC (ssRNA, 2'-OMe all, PS all) [In3E3 3' truncation 14 nt] | 0.08 | 0.35 | – | –
39 | AGGCAAGUCCGGCUCACUGG (ssRNA, 2'-OMe all, PS all) [RevIn3LSA (DKLS481254)] | 0.76 | 0.82 | – | –
40 | CUCAUUCCUACCGACACCCC (ssRNA, 2'-OMe all, phosphodiester, ZEN at both ends) [Neg_C ZEN (DKLS789189)] | 0.03 | 0.09 | – | –
41 | GUGCAUGGAAUCACGGAGUGGUGCAUGGAA (ssRNA, 2'-OMe all, PS all) [Open_A 30-mer (DKLS722361)] | 1.53 | 4.08 | – | –
42 | CCAGUGAGCCGG (ssRNA, 2'-OMe all, PS all) [In3E3 3' truncation 12 nt] | 0 | 0.24 | – | –
43 | CCAGUGAGCCG (ssRNA, 2'-OMe all, full PS) [In3E3 3' truncation 11 nt] | – | – | -0.03 | 0.15
44 | CCGGACUUGCCU (ssRNA, 2'-OMe all, PS all) [In3E3 5' truncation 12 nt] | 0.07 | 0.13 | – | –
45 | AGCCGGAC (ssRNA, 2'-OMe all, PS all [2'-OMe at 1-8 (all); PS at all linkages]) [In3E3 both-end truncation 8 nt] | -0.07 | 0.07 | – | –
46 | CAGAGGCAGCAGUACGACGG (ssRNA, 2'-OMe all, PS all) [LSA_ATG] | 0.96 | 1.1 | – | –
47 | CAGAGGCAGCAGUACGACGG (ssRNA, PS all, no sugar modification) [LSA_ATG PS only (DKLS577569)] | 1.03 | 1.44 | – | –
48 | CCAGACAGCUGGUGUCGCCU (ssRNA, 2'-OMe all, PS all) [In3LSA_scr3_5] | 0.43 | 0.75 | – | –
49 | CAGUGAGCCGGACUUGCCU (ssRNA, 2'-OMe all, PS all) [In3E3 5' truncation 19 nt] | 0.87 | 0.92 | – | –
50 | CAGAGGCAGCAGUACGACGGCAGAGGCAGC (ssRNA, 2'-OMe all, PS all) [LSA_ATG 30-mer (DKLS428543)] | 1.21 | 1.89 | – | –

From patent publication US20200230168, “NUCLEIC ACID OLIGOMERS AND USES THEREFOR” (Queensland University of Technology, published 2020)
